The source of these data is article PMC12844804, “Paving the Way for CCK2R-Targeted Peptide Receptor Radionuclide Therapy with [^177Lu]Lu-DOTA-MGS5 in Patients with Small Cell Lung Cancer” (Pharmaceutics, 2026).

Read-outs that look alike come from different tables or passages of the source.

Data set [1] has as its system patients with advanced MTC. The settings on record: human, in vivo; cited from earlier work. The protocol: So far, ^177Lu-labeled peptides targeting CCK2R have been used for PRRT in patients with advanced MTC. […] In a dose escalation study, six patients with advanced MTC were treated with up to three to four cycles of [^177Lu]Lu-PP-F11N (3 × 6 GBq or 4 × 8 GBq) ...

The conditions of data set [2]: human, in vivo, iv; cited from earlier work. The protocol: Due to disease progression observed at the radiologic follow-up examination during fourth-line treatment with topotecan (Figure 4a–f) and following confirmation of intense tracer uptake on [^68Ga]Ga-DOTA-MGS5 PET/CT, the patient underwent a preliminary dosimetric evaluation with [^177Lu]Lu-DOTA-MGS5 to calculate the absorbed dose to organs at risk and the tumor. After the intravenous administration of 1.5 GBq [^177Lu]Lu-DOTA-MGS5 (corresponding to a peptide dose of less than 100 µg), scintigraphic images were acquired at 30 min, 4 h, 24 h, 72 h and 96 h p.i. (Supplementary Figure S3A). As prev ...

The conditions of data set [3]: human, in vivo. The method, then:
For dosimetry, both planar and SPECT/CT imaging were performed at nominal time points of 30 min and 4, 24, 72 and 96 h post-injection (p.i.). The acquisition protocol for the first three time points followed the procedure described above. For the 72 and 96 h scans, the dwell time per projection for SPECT acquisition was increased to 24 s, and the planar scan speed was reduced to 8 cm/min to compensate for the reduced count statistics at later time points. The gamma camera sensitivity was calibrated according to the GE Healthcare-recommended protocol (DICOM Conformance Statement: NM General Purpose 600/800 Series, Rev. 15, 2018). A Petri dish containing a known activity of lutetium-177 was used as the calibration source, yielding a calibration factor of 5.2 cps/MBq. To correct for partial volume effects (PVEs), recovery coefficients (RCs) were determined using an IEC-NEMA phantom with fillable spheres of varying diameters, and a Jaszczak phantom containing a 60 mm sphere (Data Spectrum Corporation, Hillsborough, NC, USA). For each sphere, RCs were calculated, and a logarithmic regression model was fitted to generate a recovery curve. Two selected well-delineable lesions were segmented on 24 h p.i. SPECT images using a 41% isocontour threshold in Affinity 3.0 (Hermes Medical Solutions, Stockholm, Sweden). Subsequently, SUVmax values normalized to body weight were computed and corrected for PVEs using the corresponding RCs. […] (Supplementary Figure S3A). […] Additionally, the mean absorbed dose to the tumor was 12.5 ± 10.2 Gy/GBq (range: 1.2-28 Gy/GBq) across five well-delineated lesions. The time-activity curves for kidneys, stomach wall and two selected lesions were fitted and extrapolated using non-linear regression. […] A tri-exponential function was used for the kidneys, while a bi-exponential model (with k3 = 0) was applied for the stomach wall and the two lesions. […]

The test system of a further data set is patient with ED-SCLC. It counts as in vivo, human. The text has this: A patient diagnosed with SCLC (initial stage: T4 N3 M1b with primary tumor of the left central lung and possible metastasis to the left adrenal gland) completed first-line systemic therapy with carboplatin/etoposide/atezolizumab (schedule: day 1–day 3, every three weeks) followed by maintenance therapy with atezolizumab and prophylactic cranial irradiation (fractions of 2 Gy each, reaching a total dose of 30 Gy; cognitive preservation with memantine). Subsequently, the entire primary tumor region, including the selectively involved lymph nodes on the left central side, was irradiated (fractions of 2 Gy, resulting in a total dose of 60 Gy). After completing EBRT approximately six months after diagnosis, the disease remained stable for the following four months. Ten months after diagnosis, a new metastasis to the right adrenal gland occurred, and re-induction therapy with carboplatin/etoposide/atezolizumab was administered (a total of four cycles; schedule: day 1–day 3, every three weeks). In the follow-up CT scan, progressive disease was identified again, and third-line therapy with cyclophosphamide/doxorubicin/vincristine was initiated (a total of four cycles; schedule: day 1–day 2, every three weeks). […] After 2 cycles, the disease again progressed. This time, there was progression of the primary tumor, liver metastases and new lymph node metastases. Thus, alternative image-guided treatment strategies were evaluated. […] Thus, the patient was considered eligible for PRRT with [^177Lu]Lu-DOTA-MGS5. PRRT was performed under the responsibility of the treating physician and after tumor board approval. According to the Austrian Medicines Act (Arzneimittelgesetz §8), named patient use (“Heilversuch”) was not subject to authorization by or notification to the authorities. Written informed consent was obtained from the patient. All procedures were in accordance with the principles of the 1964 Declaration of Helsinki and its subsequent amendments. The retrospective analysis of the data of the patient was exempted from consultation with the Ethics Committee by the Medical University of Innsbruck.
Adequate hydration was ensured through intravenous infusion of 1000 mL of 0.9% saline solution at a rate of 300 mL/h, starting 30 min before and continuing for 2 h after treatment administration. The patient received prophylactic antiemetic therapy with 4 mg ondansetron, as well as 4 mg dexamethasone and 40 mg pantoprazole, given 20 min before the treatment. Prophylactic antiemetic therapy was repeated 12 h after therapy.
[^177Lu]Lu-DOTA-MGS5 was administered intravenously via a dedicated peristaltic infusion pump system over a period of 15–20 min. The patient was discharged at the third day following therapy. The treatment was repeated approximately every four weeks.
Whole-body SPECT/CT after each therapy cycle was performed using a dual-head SPECT/CT system (NM/CT 870 DR; GE Healthcare, Chicago, IL, USA) approximately 24 h after injection of [^177Lu]Lu-DOTA-MGS5. The acquisition consisted of 60 projections over 360° with an angular step of 6° and a dwell time of 20 s per projection. A medium-energy general-purpose collimator was used. The primary energy window was set to 187.2–228.8 keV and the scatter window to 169.1–186.9 keV. SPECT images were reconstructed using the manufacturer’s proprietary algorithms (OSEM with resolution recovery), using 2 iterations and 10 subsets and no post-reconstruction filtering. The reconstructed matrix size was 128 × 128, with a pixel size of 4.42 mm. Photon scatter correction was performed using the dual energy window method, and attenuation correction was performed using a low-dose CT scan acquired at 120 kVp, 30 mAs effective, with CareDose4D activated. Whole-body planar imaging was performed in anterior and posterior views using the same system. The scan was conducted in supine position, feet-first orientation. The table traversed 1.14 m at a speed of 10 cm/min. […]

The subject of data set [4] is A431-CCK2R cells. As to conditions: ~100 nM, 24 h treatment, 12 days colony formation, mean ± SD of four independent experiments in triplicate.
Procedure: After this treatment, the medium was aspirated and the cells were gently washed twice with phosphate-buffered saline (PBS) and then incubated at 37 °C for 12 days to allow colony formation. At the end of the incubation period, the culture medium was removed, and the wells were gently rinsed twice with PBS.
Colonies were fixed by adding 1 mL of a 3:1 methanol–glacial acetic acid solution to each well and incubated for 20 min at room temperature in a chemical hood. The solution was removed and the fixed cells gently rinsed twice with 1 mL of PBS.
Staining was performed using 1 mL of Giemsa stain (modified solution; Sigma-Aldrich, St. Louis, MO, USA, CAS No. 32884) diluted 3.5:10 in Milli-Q water. Plates were incubated with the staining solution for 2 h at room temperature. After staining, wells were rinsed twice with Milli-Q water, and plates were inverted on absorbent paper to air-dry.
Colonies were counted manually, with each visible purple-stained cluster considered as one colony. […] Each data point represents the mean ± standard deviation (SD) of four independent experiments, each performed in triplicate.
Data set [5] concerns A431-CCK2R cells. It counts as cell-based, human. As to conditions: ~250 kBq, 2 nM/well; for relative viability: viability 72 h after treatment, % of non-irradiated control, n = 3. The protocol:
To investigate the cytotoxic effect of [^177Lu]Lu-DOTA-MGS5 on A431-CCK2R cells in comparison with EBRT, cells were counted using a TC20 automated cell counter (Bio-Rad Laboratories, Hercules, CA, USA), seeded at a density of 1 × 10^5 cells per well in 6-well plates and incubated at 37 °C with 5% CO2. After 24 h, cells were irradiated with varying doses (2, 4 and 8 Gy) using a linear accelerator (Elekta Precise, Elekta Oncology Systems, Crawley, England, UK) or by incubation with [^177Lu]Lu-DOTA-MGS5 (~250 kBq, 2 nM/well) for 4 and 24 h followed by replacement with fresh medium. Incubation periods of 4 h and 24 h were selected based on the previously established internalization kinetics and the stability data obtained for [^177Lu]Lu-DOTA-MGS5 [25]. At the time point of 72 h after treatment, cell viability was assessed using a Beckman Coulter Vi-CELL AS cell viability analyzer (Beckman Coulter, Fullerton, CA, USA). The supernatant from each well was collected in 15 mL Falcon tubes. Cells were then washed twice with 1 mL of serum-free medium, and the wash fractions were combined with the respective supernatants. Trypsin (300 µL) was added to each well, and plates were incubated until detachment. Following detachment, 1 mL of medium was added to each well, and cells were rinsed and transferred to their respective Falcon tubes. This washing step was repeated twice, reaching a total volume of 3 mL. Cells were pelleted by centrifugation in a benchtop centrifuge (Megafuge™ 8; Thermo Fisher Scientific, Waltham, MA, USA) at 2000 rpm for 8 min at 4 °C, and the supernatant was discarded. Pellets were resuspended in 1 mL of cold serum-free medium. Samples were loaded into the Vi-CELL AS analyzer according to the manufacturer’s instructions. The number of viable cells in each treatment group was normalized to the mean number of viable cells in the non-irradiated control group and expressed as a percentage of the control.

Consider “DOTA-(DGlu)6-Ala-Tyr-Gly-Trp-Nle-Asp-Phe-NH2 [[^177Lu]Lu-PP-F11N, ^177Lu-labeled CCK2R-targeting agonist]”, for which, in data set [1], the dose-limiting toxicity result was “without signs of dose-limiting toxicity” and the “median absorbed tumor dose” value is recorded as 0.88 Gy/GBq.
Turning to `CCCC[C@@H](C(=O)N[C@@H](CC(=O)O)C(=O)N[C@@H](Cc1cccc2ccccc12)C(N)=O)N(C)C(=O)[C@H](Cc1c[nH]c2ccccc12)NC(=O)CNC(=O)[C@H](Cc1ccc(O)cc1)NC(=O)[C@H](C)NC(=O)[C@@H](CCC(=O)O)NC(=O)CN1CCN(CC(=O)O)CCN(CC(=O)O)CCN(CC(=O)O)CC1` [[^177Lu]Lu-DOTA-MGS5, metal not drawn], in data set [2], the “absorbed dose to the bone marrow” value was 0.022 Gy/GBq; the “absorbed dose to the kidneys” value is reported as 0.28 Gy/GBq; the “absorbed dose to the stomach” value is on record as 0.42 Gy/GBq; the “absorbed dose to the tumor, range” value is recorded as 1.2–28 Gy/GBq. Further, in data set [2], the “mean absorbed dose to the tumor” value is 12.5 ± 10.2 Gy/GBq. Moreover, in data set [3], the “tracer clearance kinetics, CCK2R-positive stomach wall” value was “slower and more prolonged washout”; the “tracer clearance kinetics, kidneys” value was “rapid initial decline in activity”; the “tracer clearance kinetics, thoracic wall lesion and gastrointestinal tract lesion” value is reported as “gradual mono-exponential decrease in activity”. Also, in the data set with patient with ED-SCLC (SPECT 24 h p.i., dosimetry and first three cycles, PVE corrected), the “change of SUVmax in two well-delineated lesions” value is “only a minor decrease”. Besides, the “uptake in new disseminated liver metastases” value in the data set on patient with ED-SCLC (SPECT/CT after the fourth cycle) is reported as “negative”. In the data set with patient with ED-SCLC (after the second administration), the clinical symptoms result was “improvement”. Further, the “lesion uptake on serial SPECT/CT after each treatment cycle” value in the data set with patient with ED-SCLC (approximately 24 h p.i.) was “overall stable uptake”. Also, in the data set on patient with ED-SCLC (at the fourth cycle of PRRT), the “follow-up contrast-enhanced CT finding” value is given as “continued disease progression”. In the data set with patient with ED-SCLC (human, in vivo), the GGT stood at 74 U/L, the GOT stood at 44 U/L, the GPT was determined as 14 U/L and the “Karnofsky Index” value stood at 100%. In addition, in the data set with patient with ED-SCLC (human, in vivo), the “absorbed dose delivered to the tumor lesions during PRRT, range” value was 21-482 Gy; the “absorbed dose of healthy tissue, bone marrow” value was 0.4 Gy; the “absorbed dose of healthy tissue, kidneys” value is 5 Gy; the absorbed dose of healthy tissue, stomach came out at 7 Gy. In addition, in the data set with patient with ED-SCLC (human, in vivo), the “adverse effect following the first administration” value is recorded as “mild nausea”; the creatinine is listed as 0.64 mg/dL; the eGFR was greater than 60 mL/min/1.73 m^2; the “hematological, renal or hepatic toxicities in laboratory tests” value was “no hematological, renal or hepatic toxicities”. Besides, in the data set with patient with ED-SCLC (human, in vivo), the “mean absorbed dose delivered to the tumor lesions during PRRT” value was found to be 215 Gy and the weight loss entry is recorded as “approximately 2 kg”. Further, in the data set with patient with ED-SCLC (tumor marker during four administrations), the NSE levels entry was “slight reduction after the first three administrations but increased by the fourth administration”. Also, the clonogenic survival in the data set on A431-CCK2R cells [4] (2 MBq/well) is listed as 54.9 ± 10.9%. In the data set on A431-CCK2R cells [4] (250 kBq/well), this compound displayed a clonogenic survival of 82.7 ± 6.5%. In addition, in the data set on A431-CCK2R cells [5] (4 h and 24 h incubation, compared with EBRT 2, 4 and 8 Gy), the “EBRT dose with comparable response” value was 2-4 Gy. Also, the relative viability with A431-CCK2R cells [5] (4 h incubation) is recorded as 58.5 ± 3.3%. For the same compound, the relative viability with A431-CCK2R cells [5] (24 h incubation) was found to be 55.5 ± 8.3%.
